Results published in patent US5114710A, “M-CSF as a therapeutic agent for thrombocytopenia” (Green Cross Corporation, priority 1988, dated 1992).
“Also recorded” adds a separate entry of the source.

Assays:
[1] = tested on: mouse marrow cells; assay: Colony stimulating activity: colony formation of mouse marrow cells on single-layer soft agar gel; format: cell-based
Method: (§1) The colony stimulating activity of the CSF according to the invention was determined by the method involving colony formation of mouse marrow cells on a single-layer soft agar gel. Thus, the CSF sample was admixed with 1 ml of McCoy's 5A medium (GIBCO) containing 0.3% agar, 20% fetal calf serum (FCS) and 1×10^5 mouse marrow cells. Incubation was carried out at 37° C. for 7 days under a stream of 7.5% CO2 -containing air. Thereafter, cell aggregates consisting of 50 or more cells were judged as colonies and counted. The colony stimulating activity was expressed in units. One unit was defined as the quantity of CSF required for the formation of one colony. The specific activity was expressed in terms of the number of colonies (units) formed per milligram of the CSF protein. […] The colonies formed were stained with hematoxylin-eosin for morphological classification.

[2] = Thermal stability: colony stimulating activity after heating; format: physicochemical; settings: 1 μg/ml, dilute buffer pH 7.0, 60±0.5° C., 60 minutes
Method: The CSF was dissolved in a dilute buffer (pH 7.0) to a concentration of 1 μg/ml, and the solution was heated at 60±0.5° C. for 60 minutes and then assayed for colony stimulating activity (to be mentioned later herein).
as §1

[3] = tested on: patients with thrombocytopenia; assay: Administration to patients with thrombocytopenia (summary of clinical test examples 1 and 2); format: in vivo, human; settings: administration in the course of chemotherapy
Source text: A malignant tumor patient was subjected to chemotherapy (first chemotherapy), then merely observed for a period (control phase) and, after a second chemotherapy, administered with 8×10^6 units of a glycoprotein preparation comprising the prepared in Reference Example 1 as active ingredient by intravenous drip for 7 consecutive days (preparation administration phase). Blood granulocytes and platelets were counted at timed intervals. The minimum platelet count and the number of days required for the platelet level to regain a level of at least 10^5 /mm^3 in the control phase and in the preparation administration phase are comparatively shown in Table 4.
Ten malignant tumor patients were subjected to a first chemotherapy, then observed without any treatment for a period (control phase) and, after a second chemotherapy, administered with 8×10^6 units of a glycoprotein preparation comprising the CSF prepared in Reference Example 1 as active ingredient by intravenous drip for 7 consecutive days (preparation administration phase). Blood platelets were counted at timed intervals. The minimum platelet count and the number of days required for the platelet count to regain a level of at least 10^5 /mm^3 in the control phase and in the preparation administration phase are comparatively shown in Table 5.

[4] = Isoelectric point by polyacrylamide gel isoelectric focusing and sucrose density gradient isoelectric focusing; format: physicochemical
Source text: The isoelectric point (pI) as determined by the polyacrylamide gel isoelectric focusing and sucrose density gradient isoelectric focusing techniques is 3.1-3.7.

B1: CSF: human monocyte-macrophage colony stimulating factor, glycoprotein homodimer of two identical subunits (35,000-45,000 daltons each), purified from human urine (protein, UniProt P09603 33-554, looked up)
Macrophage colony-stimulating …: EEVSEYCSHMIGSGHLQSLQRLIDSQMETSCQITFEFVDQEQLKDPVCYLKKAFLLVQDIMEDTMRFRDNTPNAIAIVQLQELSLRLKSCFTKDYEEHDKACVRTFYETPLQLLEKVKNVFNETKNLLDKDWNIFSKNCNNSFAECSSQDVVTKPDCNCLYPKAIPSSDPASVSPHQPLAPSMAPVAGLTWEDSEGTEGSSLLPGEQPLHTVDPGSAKQRPPRSTCQSFEPPETPVVKDSTIGGSPQPRPSVGAFNPGMEDILDSAMGTNWVPEEASGEASEIPVPQGTELSPSRPGGGSMQTEPARPSNFLSASSPLPASAKGQQPADVTGTALPRVGPVRPTGQDWNHTPQKTDHPSALLRDPPEPGSPRISSLRPQGLSNPSTLSAQPQLSRSHSSGSVLPLGELEGRRSTRDRRSPAEPEGGPASEGAARPLPRFNSVPLTDTGHERQSEGSFSPQLQESVFHLLVPSVILVLLAVGGLLFYRWRRRSHQEPQRADSPLEQPEGSPLTQDDRQVELPV
modifications: urinary homodimer
notes: human monocyte-macrophage colony stimulating factor, glycoprotein homodimer of two identical subunits (35,000-45,000 daltons each), purified from human urine
What does the source list for B1?
specific activity ([1]; Reference Example 2, CSF purified with antibody-bound carrier): 5.2×10^7 units/mg; specific activity ([1]; Reference Example 2, CSF-containing solution before antibody-bound carrier treatment): 2 ×10^5 units/mg; monocyte-macrophage colonies among the colonies formed ([1]; hematoxylin-eosin staining, morphological classification): at least 95%; specific activity ([1]; purification step (1) DEAE-cellulose): 1.6 × 10^5 units/mg; specific activity ([1]; purification step (2) Sephacryl S-300): 5.7 × 10^5 units/mg; specific activity ([1]; purification step (3) Phenyl-Sepharose): 8.8 × 10^6 units/mg; specific activity ([1]; purification step (4) TSKG-3,000 SW): 2.0 × 10^7 units/mg; specific activity ([1]; purification step (5) Hi-Pore RP-304 (final)): 1.4 × 10^8 units/mg; specific activity (colony stimulating activity) ([1]; purified CSF, mouse marrow cells, 7 days at 37° C., one unit = one colony): 1.4×10^8 units per milligram of protein; thermal stability (colony stimulating activity after heating) [2]: The biological activity is not lost; also recorded: Almost no activity decrease was observed; restoration of a normal platelet level [3]: rapid restoration of a normal platelet level; isoelectric point (pI) [4]: 3.1-3.7
